# From the DeepSol protein solubility set
# Assay: soluble on expression in E. coli; label from the status in PepcDB or PDB records
row,Sequence,soluble on expression in E. coli
1,AHHHHHHGSKFEELNEKIKKVYGKVRTIDDFHWHISDNLIHGIHKKSGLRLEIRIAESKEAADKIAQKKEPGNLMVIVVPGKETFYVNNGAFVLALKFLRSTIQDISDHIVWAGFKVVERDGALEQEDIYEYLGGRLIEHIKSGMVNGKDYIFWQFYKCEHCGKYVDIENLVRHMKTHGEDVKEWSEEKYEVLELSFEDKKVYNKFGKEVPLEEFVEETQDFIKEVFES,soluble
2,AHHHHHHGSKTLKVYIPGIKFPSISVTGNYCALNCAHCGRHYLEGMKKITRLNLVDKCVEMEKEGYVGCLLSGGMDSRLKVPLDKFKDEIREIKEKTRLKINAHVGFIDEDDLEWLKYIDVVSLDFVGDNEVIKRVYKIDKTVNDYLKILDILTKERIKVAPHITIGLDFGRIHWEYEAIDLLSEYPIDVLVLNILIPTPGTEMENVKVSMEEALNVVRYAREEFKGELSIGCMRPFGRWREEFDKRAILIGVDRITNPPRKVIEWAKQFRKVEIHFECCVI,not soluble
3,AHHHHHHGSPPIIDPHILRSLHRSELRRRILHYLYEIYPSATYLSEIARVVSSDPSNVRGALVGLGNRYNSESSLVYLGLVEEIVNNGFKYYRLTEYGKKVVEMLKDYQTYYRKFM,not soluble
4,AHHHHHHGSRERGVAFFSGGKDGLYALYLAEKEGIEVPYLLTLKTSIGLSPHWENLSSLKALAENMGKKLLTFDMKYGSKALAEFISSLDVDYIIAGDVFLEDHLKWINLLAEKAGIKSFEPLWGKNTLELAKEMLNAGFKYSIIAVDKNKLEKTWLGYTFSSTRDIEIFIYENPTIDPLGEGGEFHTITLSSPLFKDEFTLEKISVEESERYWWMRFRVVGNDIKNVRVKGHNSRKDG,not soluble
5,AHHHHHHGSSSIEWNEKTFAKFAYLSDPRTKGELVAYVLTKANLKDNKYENTIVIENLKNNARRFIENATMPRISPDGKKIAFMRANEEKKVSEIWVADLETLSSKKILEAKNIRSLEWNEDSRKLLIVGFKRREDEDFIFEDDVPAWFDDLGFFDGEKTTFWIFDTESEEVIEEFEKPRFSSGIWHRDKIVVNVPHREIIPQYFKFWDIYIWEDGKEEKMFEKVSFYAVDSDGERILLYGKPEKKYMSEHNKLYIYDGKEVMGILDEVDRGVGQAKIKDGKVYFTLFEEGSVNLYIWDGEIKPIAKGRHWIMGFDVDEIVVYLKETATRLRELFTWDGEEKQLTDYNDPIFAKLKTFEPVHFRYKSLDLEIDGWYMKPELKEGEKAPVIVFVHGGPKGMYGYYFKYEMQLMAAKGYYIVYVNPRGSNGYSEDFALRVLTRTGLEDFQDILNGIEEFLKLEPQADRERIGITGISYGGYMTNWALTQSDLFKAGISENGISYWLTSYAFSDIGLWFDKEVIGENPLENENFRRLSPLFYAKNVKAPILLIHSLEDYRCPLDQSLMFYHVLKDLGKEAYIAIFKRGAHGHSIRGQPRHRMKRYKLFVEFFERKLKKYEEGFPIEKILKE,not soluble
6,AHHHHHHGSVRIEVVDIEKPEGVEVIIGQGNFSIFTVDDLARALLTTVPGIKFGIAMNEAKPQLTRYTGNDPELEKLAAKNALKIGAGHVFVILMKNAYPINVLNTIKNHPAVAMVYGASENPFQVIVAETELGRAVIGVVDGKAATKIETEEQKKERRELVEKIGYKID,not soluble
7,AHHHHHHGSVVKRTMTKKFLEEAFAGESMAHMRYLIFAEKAEQEGFPNIAKLFRAIAYAEFVHAKNHFIALGKLGKTPENLQMGIEGETFEVEEMYPVYNKAAEFQGEKEAVRTTHYALEAEKIHAELYRKAKEKAEKGEDIEIKKVYICPICGYTAVDEAPEYCPVCGAPKEKFVVFE,soluble
8,AHQTKVDTLIVTNSKAWKPFSYVSQDGEPKGILIDFWREYAERNHVRVEFLLLDWEESLRAVKEGRADVHAGLIYSEARDKYLDFGAVIMPIQTKLYVNKDMLAVDIKGVLTGEVELPIGLVKGSYEAEFVRANYPRASLVEYLNNDAMIRAAVEKNILYFVADLQVAN,not soluble
9,AIASPQDTCCPPDSWPALKVDYKPKGKLEDIGKGLKAYVVGNGPRAVIALNDVFGIESGHSKEICDAIADKGFTVVFPDVFRGKPLQVSDMSKLFDELPGWAKQFDYEPALRKDVVEVILPYLHDKLGFKSNDQIALAGFCWGAFMLFHLAGDTKLPGGPFACGVSFHPSVQIEGVFQRDPLQLIDRATCPQLLLPSAGEPDYMKEEGDAIKKLRAKPFGASCGVKTFPSMQHGWVNRGDRNDPQVVKEAQEALQLAVDFMMRHTKPKA,soluble
10,AIASVAFVPDWLRGKAEVNQETIQRLLEENDQLIRCIVEYQNKGRGNECVQYQHVLHRNLIYLATIADASPTSTSKAME,soluble
11,AIATSCHIAEEHIQKVAIFGGTHGNELTGVFLVKHWLENGAEIQRTGLEVKPFITNPRAVKKCTRYIDCDLNRIFDLENLGKKMSEDLPYEVRRAQEINHLFGPKDSEDSYDIIFDLHNTTSNMGCTLILEDSRNNFLIQMFHYIKTSLAPLPCYVYLIEHPSLKYATTRSIAKYPVGIEVGPQPQGVLRADILDQMRKMIKHALDFIHHFNEGKEFPPCAIEVYKIIEKVDYPRDENGEIAAIIHPNLQDQDWKPLHPGDPMFLTLDGKTIPLGGDCTVYPVFVNEAAYYEKKEAFAKTTKLTLNAKSIRCCLH,soluble
12,AIFELMNEAYAPLYGFSALSQGQINQYIKMYLPIVDLRMVTLVTDAEDKLVAVGISMPSLSEALQKAKGRLLPMGWYHLLKVLFLHKYPPMLDLLLVAVKPEYQNKGVNALLFSDLIPVYQQLGFKYA,not soluble
13,AIREFNTKEKVFNEFTAVFDVLNHLPAFAKLHLANSMSVRYANTLGISQRNAEVFANRGTSGIDGVISTAYGYALKTSQLVTIITGDLAFFYDRNAFWNNYKPSNLRVVLLNNHGGGIFRMIDGPSALPELDELFETKQTLSARYLATEHGLEYTLCKNLNGLNQALESFFQPSMFGKILEIETDSVKN,not soluble
14,AKHLFTSESVSEGHPDKIADQISDAVLDAILEQDPKARVACETYVKTGMVLVGGEITTSAWVDIEEITRNTVREIGYVHSDMGFDANSCAVLSAIGKQSPDINQGVDRADPLEQGAGDQGLMFGYATNETDVLMPAPITYAHRLVQRQAEVRKNGTLPWLRPDAKSQVTFQYDDGKIVGIDAVVLSTQHSEEIDQKSLQEAVMEEIIKPILPAEWLTSATKFFINPTGRFVIGGPMGDCGLTGRKIIVDTYGGMARHGGGAFSGKDPSKVDRSAAYAARYVAKNIVAAGLADRCEIQVSYAIGVAEPTSIMVETFGTEKVPSEQLTLLVREFFDLRPYGLIQMLDLLHPIYKETAAYGHFGREHFPWEKTDKAQLLRDAAGLK,soluble
15,AKIGLFFGSNTGKTRKVAKSIKKRFDDETMSDALNVNRVSAEDFAQYQFLILGTPTLGEGELPGLSSDAENESWEEFLPKIEGLDFSGKTVALFGLGDQVGYPENYLDALGELYSFFKDRGAKIVGSWSTDGYEFESSEAVVDGKFVGLALDLDNQSGKTDERVAAWLAQIAPEFGLSL,soluble
16,AKQDYYEILGVSKTAEEREIRKAYKRLAMKYHPDRNQGDKEAEAKFKEIKEAYEVLTDSQKRAAYDQYGHAAFEQGGMGGGGFGGGADFSDIFGDVFGDIFGGGRGR,soluble
17,ALHEATRDLLGADSPSTVAAEVGAAIESILEFRINVIRVHRDGQLQPVHVNDKAEELLAERPTYDVGEGFPGEAFEEQQASVYTDIRDHDGGTALEPVVSWLYVPISEYGIISVGQTDPDAFDETDLNLVQIIASNAEVALQRLQKERELQRENDRLEQFASTVS,not soluble
18,ALLITKKCINCDMCEPECPNEAISMGDHIYEINSDKCTECVGHYETPTCQKVCPIPNTIVKDPAHVETEEQLWDKFVLMHHADKI,soluble
19,AMTGSDGTKILTITRPDTHGTKTSLTARLYSDTTKKATLDTIFTVVTSPDSDKAKMWGHMPETVTAADGAVFKRPLLLKELSSTSGRTAIAEDNEDWAQFTQAQAISTSSNGCGSEYVPSQAGLESLYEANRGNAMKTVQGWPVASSYLSSTTGSSSLEQRDFKAVNLSSGTSSIIPSATKELLTCQ,not soluble
20,ANMPPGSVEQVAAKVVPSVVMLETDLGRQSEEGSGIILSAEGLILTNNHVIAAAAKPPLGSPPPKTTVTFSDGRTAPFTVVGADPTSDIAVVRVQGVSGLTPISLGSSSDLRVGQPVLAIGSPLGLEGTVTTGIVSALNRPVSTTGEAGNQNTVLDAIQTDAAINPGNSGGALVNMNAQLVGVNSAIATLGADSADAQSGSIGLGFAIPVDQAKRIADELISTGKASHASLGVQVTNDKDTLGAKIVEVVAGGAAANAGVPKGVVVTKVDDRPINSADALVAAVRSKAPGATVALTFQDPSGGSRTVQVTLGKAEQLEHHHHHH,soluble
21,APNVDLHCHSTVSDGSMPPAAVARRAHANGVDVWALTDHDEIGGVAEAAQAAAALGMRFVAGVEISVTWAGLTVHIVGLRVDPANEALVQGLRDTRAGRAARAVQIGERLAGLGMPGAYEGALPFAGNPELISRTHFARFLVEAGYCPDVQTVFNKYLGDDCPGHVPMQWASLAEAVGWIRGAGGCAVIAHPGRYKYSPMQFDALYDEFLQLGGTGIEVVTGSHTSEEARRYAEVARRHGFLASRGSDFHSPTESRVDLGRLPPLPPDLKPVWHDW,not soluble
22,APPKAVLKLEPPWINVLQEDSVTLTCQGARSPESDSIQWFHNGNLIPTHTQPSYRFKANNNDSGEYTCQTGQTSLSDPVHLTVLSEWLVLQTPHLEFQEGETIMLRCHSWKDKPLVKVTFFQNGKSQKFSRLDPTFSIPQANHSHSGDYHCTGNIGYTLFSSKPVTITVQVHHHHHH,soluble
23,APRSVAMVVPQGSDIRQLSDLRGKRIALNKGSNVHWLLLQILEDAGLGLNDVRVVYTPPKYPLTASDYLAVDAWMMWDPLLSDAEHTGELRVVASGEGRVNNHQFYLSRRDYLAQHGDIMRRLLTELTHTGQFIDSHRGEAARLLSAELGI,not soluble
24,APTMTEFVGTAGGDTVGLVIANVDSLLHKHLGLDNTCRSIGIISARVGAPAQMMAADEAVKGTNTEVATIELPRDTKGGAGHGIFIVLKAADVSDARRAVEIALKQTDKYLGNVYLCDAGHLEVQYTARASLIFEKAFGAPSGQAFGIMHAAPAGVGMIVADTALKTADVKLITYGSPTNGVLSYTNEILITISGDSGAVLQSLTAARKAGLSILRSMGQDPVSMSKPTF,soluble
25,AQDMVSPPPPIADEPLTVNTGIYLIECYSLDDKAETFKVNAFLSLSWKDRRLAFDPVRSGVRVKTYEPEAIWIPEIRFVNVENARDADVVDISVSPDGTVQYLERFSARVLSPLDGRRTESDSQTLHIYLIVRSVDTRNIVLAVDLEKVGKNDDVFLTGWDIESFTAVVKPANFALEDRLESKLDYQLRISRQGGHHHHHH,soluble
26,AQEPVKGPVSTKPGSCPIILIRCAMLNPPNRCLKDTDCPGIKKCCEGSCGMACFVPQ,soluble
27,AQPGAEVLAIDGITVKDTRGIETVRDLSLSVKAGEIVGIAGVDGNGQSELIEAVTGLRKTDSGTITLNGKQIQNLTPRKITESGIGHIPQDRHKHGLVLDFPIGENILLQSYYKKPYSALGVLHKGEMYKKARSLITEYDVRTPDEYTHARALSGGNQQKAIIGREIDRNPDLLIAAQPTRGLDVGAIEFVHKKLIEQRDAGKAVLLLSFELEEIMNLSDRIAVIFEGRIIASVNPQETTEQELGLLMAGSTQKEAGKANG,not soluble
